Experimental data from patent US20140193915, “COMPOSITIONS AND METHODS FOR CUSTOM SITE-SPECIFIC DNA RECOMBINASES” (Monsanto Technology, LLC, published 2014).
Residue numbers refer to the chain shown, from its start.

Key:
Test in all cases: cell_activity; E. coli
pN-TALER IV-14 = molecular target: T1, pN-TALER IV-14 (synthetic)
T1 chain: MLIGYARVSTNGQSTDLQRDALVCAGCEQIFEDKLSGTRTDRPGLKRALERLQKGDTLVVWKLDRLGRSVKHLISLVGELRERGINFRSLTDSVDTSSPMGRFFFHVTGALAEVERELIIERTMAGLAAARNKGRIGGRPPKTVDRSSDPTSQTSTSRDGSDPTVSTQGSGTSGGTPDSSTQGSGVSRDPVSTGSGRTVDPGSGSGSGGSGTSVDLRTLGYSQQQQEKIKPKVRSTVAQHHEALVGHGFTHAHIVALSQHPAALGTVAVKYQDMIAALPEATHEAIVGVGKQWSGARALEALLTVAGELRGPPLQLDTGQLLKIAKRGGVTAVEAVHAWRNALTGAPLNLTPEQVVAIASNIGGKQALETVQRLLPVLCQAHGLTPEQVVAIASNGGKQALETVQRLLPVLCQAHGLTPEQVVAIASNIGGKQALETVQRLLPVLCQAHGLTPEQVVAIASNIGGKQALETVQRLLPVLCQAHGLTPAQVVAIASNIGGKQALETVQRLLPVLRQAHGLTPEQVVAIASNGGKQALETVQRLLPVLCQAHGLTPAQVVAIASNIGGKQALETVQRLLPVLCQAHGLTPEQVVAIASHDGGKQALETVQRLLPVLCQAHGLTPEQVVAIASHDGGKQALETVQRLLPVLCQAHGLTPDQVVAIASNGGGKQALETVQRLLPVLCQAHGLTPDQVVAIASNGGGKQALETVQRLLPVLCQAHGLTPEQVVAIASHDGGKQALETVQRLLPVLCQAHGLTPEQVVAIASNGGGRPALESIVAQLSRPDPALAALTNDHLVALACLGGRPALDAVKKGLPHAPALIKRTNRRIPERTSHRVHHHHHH
Method: (§1) To test for recombination, E. coli DH5alpha cells were co-transformed with different combinations of TALER expression construct and TALER reporter construct pairs (Tables 6 and 7). The N-TALER expression and reporter constructs were in an approximate 1:1 mass ratio during the transformation. The co-transformed bacteria were plated on media with chloramphenicol, kanamycin, and X-gal then incubated at 37° C. for 18 to 36 hours. Control samples consisted of transformations using the reporter construct alone. Control transformants were similarly plated. The bacterial transformation protocol was either heat shock or electroporation per standard molecular biology techniques.
(§2) The N-TALER expression constructs representing the N-TALER chimeras with varying linker lengths were co-transformed with N-TALER reporter constructs with TALER central sequence lengths of 18, 20, 24, 30, 40, and 50 bp (Table 13). […] Recombination did occur, but was less efficient with the pN-TALER IV-14 (linker length of 71 amino acids) with each of the N-TALER reporters tested.

pN-TALER IV-12 = molecular target: T2, pN-TALER IV-12 (synthetic)
T2 chain: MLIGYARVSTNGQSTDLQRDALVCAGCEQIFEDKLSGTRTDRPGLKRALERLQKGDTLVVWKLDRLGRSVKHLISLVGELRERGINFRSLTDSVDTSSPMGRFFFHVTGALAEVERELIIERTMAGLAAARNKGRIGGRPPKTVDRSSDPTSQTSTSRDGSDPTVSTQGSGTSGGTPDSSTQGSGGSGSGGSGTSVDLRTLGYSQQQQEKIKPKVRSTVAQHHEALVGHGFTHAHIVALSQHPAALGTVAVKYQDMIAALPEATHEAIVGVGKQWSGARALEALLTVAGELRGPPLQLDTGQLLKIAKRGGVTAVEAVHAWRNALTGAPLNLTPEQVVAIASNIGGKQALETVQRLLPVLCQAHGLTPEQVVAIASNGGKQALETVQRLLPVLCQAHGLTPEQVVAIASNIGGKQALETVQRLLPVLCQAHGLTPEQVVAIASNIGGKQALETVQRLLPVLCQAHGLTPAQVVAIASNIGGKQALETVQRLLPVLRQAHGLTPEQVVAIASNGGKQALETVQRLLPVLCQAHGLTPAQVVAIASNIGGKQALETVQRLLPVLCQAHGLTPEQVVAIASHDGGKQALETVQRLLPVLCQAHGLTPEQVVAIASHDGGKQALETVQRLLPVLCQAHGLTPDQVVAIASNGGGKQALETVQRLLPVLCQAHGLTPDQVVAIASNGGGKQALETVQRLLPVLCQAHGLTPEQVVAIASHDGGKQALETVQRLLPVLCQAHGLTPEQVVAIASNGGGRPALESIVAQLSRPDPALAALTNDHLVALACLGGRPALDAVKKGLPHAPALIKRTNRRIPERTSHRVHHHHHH
Method: as §1, §2

sN-TALER IV-12 = molecular target: T3, sN-TALER IV-12 (synthetic)
T3 chain: T2 chain with A6V, G12D, S14N, D20N, E50K, V70M, V94I, H106Y, T108M, V114M
Method: as §1, §2

B1: Gin20TALE+0 (dsDNA)
DNA 1: AGAAGGTATTTATATCCAAAACCATGGTTTACAGTATAAATACCTTCT
DNA 2: AGAAGGTATTTATACTGTAAACCATGGTTTTGGATATAAATACCTTCT
**Q.** Which activity (pN-TALER IV-14) does the source give for B1 here?
**A.** 3 score

**Q.** What about the activity (pN-TALER IV-12) of the same binder?
**A.** 1 score

**Q.** What about the activity (sN-TALER IV-12) of the same binder?
**A.** 1 score
